The values that follow come from paper PMC3594540 (Nature structural & molecular biology, 2013).

Assay [1] has as its target T1, PLCβ3 T652E (human, UniProt Q01970).
T1 chain: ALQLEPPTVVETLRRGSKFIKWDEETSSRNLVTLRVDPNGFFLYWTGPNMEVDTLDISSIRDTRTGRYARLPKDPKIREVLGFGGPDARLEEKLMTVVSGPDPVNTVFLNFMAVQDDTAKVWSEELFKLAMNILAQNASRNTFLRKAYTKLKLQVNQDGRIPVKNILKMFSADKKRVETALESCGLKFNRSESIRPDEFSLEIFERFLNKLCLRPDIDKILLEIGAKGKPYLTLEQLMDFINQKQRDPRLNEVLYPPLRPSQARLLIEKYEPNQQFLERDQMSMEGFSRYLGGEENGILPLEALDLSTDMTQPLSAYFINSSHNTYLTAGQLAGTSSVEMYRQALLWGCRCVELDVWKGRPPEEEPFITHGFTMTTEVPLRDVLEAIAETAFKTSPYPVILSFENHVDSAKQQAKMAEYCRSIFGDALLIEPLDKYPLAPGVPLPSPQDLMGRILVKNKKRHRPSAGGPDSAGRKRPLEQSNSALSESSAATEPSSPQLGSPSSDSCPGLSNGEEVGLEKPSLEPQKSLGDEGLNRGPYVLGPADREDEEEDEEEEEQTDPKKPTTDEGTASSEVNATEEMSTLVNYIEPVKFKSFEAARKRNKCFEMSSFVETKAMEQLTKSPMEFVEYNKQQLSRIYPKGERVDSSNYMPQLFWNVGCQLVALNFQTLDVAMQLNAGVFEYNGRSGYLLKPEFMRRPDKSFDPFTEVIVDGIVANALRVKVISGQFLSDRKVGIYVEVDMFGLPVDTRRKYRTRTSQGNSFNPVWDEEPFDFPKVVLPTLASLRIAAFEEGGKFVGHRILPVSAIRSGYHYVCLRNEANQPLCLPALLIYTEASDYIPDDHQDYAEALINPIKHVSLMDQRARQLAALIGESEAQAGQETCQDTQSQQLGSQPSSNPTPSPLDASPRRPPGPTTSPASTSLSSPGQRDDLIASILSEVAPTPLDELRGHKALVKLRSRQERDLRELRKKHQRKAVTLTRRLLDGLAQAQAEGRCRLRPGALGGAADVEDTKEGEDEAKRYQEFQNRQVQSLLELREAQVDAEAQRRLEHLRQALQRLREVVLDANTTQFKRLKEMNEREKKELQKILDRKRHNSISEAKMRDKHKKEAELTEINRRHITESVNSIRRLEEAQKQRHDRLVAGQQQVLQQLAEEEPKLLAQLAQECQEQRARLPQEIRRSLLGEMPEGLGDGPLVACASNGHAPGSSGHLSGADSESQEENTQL
The assay can be described thus: cell-based or functional assay.

In assay [2] the target is T2, human PLCβ3 (residues 10–1234) (human, UniProt Q01970 10-1234).
T2 sequence: T1 chain with E643T
The assay can be described thus: cell-based or functional assay.

Where a chain is given by its changes, count along the chain named.

B1: murine Gαq (residues 7–359), biotinylated for bead binding (natural protein)
chain: MACCLSEEAKEARRINDEIERQLRRDKRDARRELKLLLLGTGESGKSTFIKQMRIIHGSGYSDEDKRGFTKLVYQNIFTAMQAMIRAMDTLKIPYKYEHNKAHAQLVREVDVEKVSAFENPYVDAIKSLWNDPGIQECYDRRREYQLSDSTKYYLNDLDRVADPSYLPTQQDVLRVRVPTTGIIEYPFDLQSVIFRMVDVGGQRSERRKWIHCFENVTSIMFLVALSEYDQVLVESDNENRMEESKALFRTIITYPWFQNSSVILFLNKKDLLEEKIMYSHLVDYFPEYDGPQRDAQAAREFILKMFVDLNPDSDKIIYSHFTCATDTENIRFVFAAVKDTILQLNLKEYNLV
In the case of B1, the results for the “EC50 of Gαq-stimulated PIP2 hydrolysis ([3H]-IP3 release from liposomes)” value in assay [1] and in assay [2] were 1150 nM and 120 nM, respectively. In assay [2], the “Max specific activity of Gαq-stimulated PIP2 hydrolysis (liposomes)” value came out at 2900 nmol IP3/min/nmol PLCβ3.
